Assay [1] addresses epitope-tagged K^b (K^bR48Q.R50P), unattached (murine) (UniProt P01901). Briefly: flow cytometry on LM1.8 transfectants.
Assay [2] addresses β2-microglobulin(L20).etK^b single chain dimer (murine) (UniProt P01887). Briefly: flow cytometry on LM1.8 transfectants.
In assay [3] the target is MCMV.β2m^b.L^d single chain trimer (murine) (UniProt P01887). Briefly: flow cytometry on DLD-1 transfectants, 64-3-7 against 30-5-7 staining.
Assay [4] deals with QL9.β2m^b.L^d single chain trimer (murine) (UniProt P01887). The description is as above.
The target of assay [5] is p29.β2m^b.L^d single chain trimer (murine) (UniProt P01887). Described as above.
For assay [6], the target named is β2m^b.L^d single chain dimer (murine) (UniProt P01887). The description is as above.

The values that follow come from patent publication US20080219947A1.

UniProt P01901, sequence (P01901 22-305, stated change not applied): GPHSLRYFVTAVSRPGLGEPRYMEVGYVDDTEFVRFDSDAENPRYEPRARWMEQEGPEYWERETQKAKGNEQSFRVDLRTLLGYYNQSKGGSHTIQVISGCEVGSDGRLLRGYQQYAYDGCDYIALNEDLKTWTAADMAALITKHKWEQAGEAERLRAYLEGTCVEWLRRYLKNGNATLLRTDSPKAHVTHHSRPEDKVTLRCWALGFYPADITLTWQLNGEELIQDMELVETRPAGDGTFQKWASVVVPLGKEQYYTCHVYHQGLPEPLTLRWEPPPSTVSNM

As to mAb 64-3-7 (antibody), the open conformers as a fraction of the sum of B8-24-3 and 64-3-7 fluorescence intensity in assay [1] and in assay [2] was above 10% throughout. For the same substance, the percent of surface molecules detected in an open conformation was 22% in assay [3], 22% in assay [4], 8% in assay [5] and 39% in assay [6].
